Measured values from patent publication US20240392002A1 (EXELIXIS, published 2024).
Residue numbers refer to the chain shown, from its start. Names may count otherwise.

Experiments:
CTLA4 = biological target: T1, CTLA4 (UniProt P16410 36-161, limits assumed); test: Octet; antigen immobilized, B-Body as analyte
T1 sequence (looked up): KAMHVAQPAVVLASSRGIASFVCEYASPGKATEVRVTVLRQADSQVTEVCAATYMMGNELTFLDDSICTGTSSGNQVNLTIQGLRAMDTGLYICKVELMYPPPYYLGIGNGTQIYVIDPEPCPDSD
Text: In each instance, the antigen is immobilized and the B-Body is the analyte.

[1] = biological target: T2, extracellular domain of human ROR1 (human, UniProt Q01973 30-406); test: BLI (Octet QK384), bivalent format: biotinylated antigen on streptavidin biosensor, 1x2 B-body as analyte
T2 construct: bought protein; biotinylated in the bivalent assay format; also called Acro Cat. No. RO1-H522y
T2 sequence (Q01973 30-406 limits assumed): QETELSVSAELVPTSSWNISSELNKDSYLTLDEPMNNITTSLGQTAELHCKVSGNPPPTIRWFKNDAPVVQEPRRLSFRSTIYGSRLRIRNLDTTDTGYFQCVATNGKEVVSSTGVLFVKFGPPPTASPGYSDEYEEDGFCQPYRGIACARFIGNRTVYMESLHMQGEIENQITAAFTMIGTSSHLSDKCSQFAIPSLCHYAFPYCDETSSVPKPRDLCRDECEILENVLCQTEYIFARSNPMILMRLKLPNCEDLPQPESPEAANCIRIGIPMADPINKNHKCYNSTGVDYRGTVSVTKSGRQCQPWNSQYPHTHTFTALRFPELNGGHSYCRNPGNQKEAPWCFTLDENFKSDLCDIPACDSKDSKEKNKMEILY
Method: (§1) Bivalent binding analysis was performed using the Octet^QK 384 (ForteBio) using streptavidin biosensors. Biotinylated antigen was first bound to the streptavidin biosensor at a concentration to yield approximately 1 nm response (typically 10 to 50 nM biotinylated protein). The biosensors were then equilibrated in 10× Kinetic Buffer (ForteBio) to establish a baseline. The 1×2 B-body™ was contacted with the antigen-coated sensors at concentrations ranging from 50 nm to 0.75 nM. The association response and dissociation were monitored and recorded. The resulting Kₒₙ and Koff was fit using the Octet analysis software.

[2] = biological target: T2, extracellular domain of human ROR1; test: BLI, bivalent format, biotinylated antigen on streptavidin biosensor, B-body 50 nM to 0.75 nM
Method: as §1

[3] = biological target: T2, extracellular domain of human ROR1; test: BLI, monovalent format, B-body on Fc biosensor, soluble antigen
Method: (§2) More specifically, monovalent binding affinity analysis was performed using the Octet^QK 384 (ForteBio) using Fc biosensors. Unlabeled B-body™ is first bound to the Fc biosensor at a concentration to yield approximately 1 nm response (typically 10 to 50 nM protein). The biosensors are then equilibrated in 10× Kinetic Buffer (ForteBio) to establish a baseline. The untagged monomer of each antigen is contacted with the antibody-coated sensors at concentrations ranging from 50 nm to 0.75 nM. The association response and dissociation were monitored and recorded. The resulting Kₒₙ and Koff was fit using the Octet analysis software.
(§3) Monovalent binding analysis was performed as described above and the antibody was captured with an Fc sensor and contacted with the indicated antigen for the association phase followed by a dissociation phase in buffer only.

[4] = biological target: T3, cynomolgus CD3 delta and epsilon heterodimer (cynomolgus, UniProt Q95LI5 22-117; Q95LI8 22-105); test: BLI (Octet QK384), monovalent format: B-body captured on Fc biosensor, untagged antigen as analyte
T3 construct: untagged monomer of the antigen in solution
T3 sequence (Q95LI5 22-117, stated change not applied, chain 1 of 2): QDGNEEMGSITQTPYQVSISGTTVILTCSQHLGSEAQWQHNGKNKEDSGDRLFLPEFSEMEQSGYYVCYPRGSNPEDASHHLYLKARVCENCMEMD
T3 sequence (Q95LI8 22-105, stated change not applied, chain 2 of 2): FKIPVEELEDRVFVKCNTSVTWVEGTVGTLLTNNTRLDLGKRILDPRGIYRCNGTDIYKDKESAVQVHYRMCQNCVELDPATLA
Method: as §2

[5] = biological target: T2, extracellular domain of human ROR1; test: as above
Method: as §2, §3

[6] = biological target: T3, cynomolgus CD3 delta and epsilon …; test: BLI, B-body on Fc biosensor, antigen monomer 50 nM to 0.75 nM
Method: as §2

[7] = biological target: T4, extracellular domain of human ROR2 (human, UniProt Q01974 34-403); test: BLI, monovalent format
T4 construct: bought protein; biotinylated in the bivalent assay format; also called Acro Cat. No. RO2-H52E5
T4 sequence (Q01974 34-403 limits assumed): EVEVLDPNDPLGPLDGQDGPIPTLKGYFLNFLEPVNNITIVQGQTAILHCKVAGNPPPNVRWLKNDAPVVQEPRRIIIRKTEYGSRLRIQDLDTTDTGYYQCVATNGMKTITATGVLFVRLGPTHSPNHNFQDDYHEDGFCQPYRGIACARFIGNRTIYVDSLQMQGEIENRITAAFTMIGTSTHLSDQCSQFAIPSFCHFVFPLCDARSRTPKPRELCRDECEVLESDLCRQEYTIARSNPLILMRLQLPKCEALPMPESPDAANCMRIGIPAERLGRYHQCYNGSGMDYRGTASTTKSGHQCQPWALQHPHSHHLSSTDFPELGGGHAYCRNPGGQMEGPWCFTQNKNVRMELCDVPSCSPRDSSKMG
Method: as §2
(§4) Next, the binding of the antibody to ROR1 and ROR2 was assessed using the monovalent and bivalent BLI binding assessments as described in Example 24.

[8] = biological target: T2, extracellular domain of human ROR1; test: BLI, monovalent format
Method: as §2, §4

[9] = biological target: T4, extracellular domain of human ROR2; test: BLI (Octet QK384), bivalent format: biotinylated antigen on streptavidin biosensor, 1x2 B-body as analyte
Method: as §1, §4

[10] = biological target: T2, extracellular domain of human ROR1; test: as above; remark: listed apart in the source
Method: as §1, §4

[11] = biological target: T4, extracellular domain of human ROR2; test: BLI, bivalent format, biotinylated antigen on streptavidin biosensor
Method: as §1, §4

[12] = biological target: T2, extracellular domain of human ROR1; test: as above
Method: as §1, §4

[13] = biological target: T3, cynomolgus CD3 delta and epsilon …; test: BLI, monovalent format, B-body on Fc biosensor
Method: as §2

[14] = biological target: T4, extracellular domain of human ROR2; test: BLI (Octet QK384), monovalent format: B-body captured on Fc biosensor, untagged antigen as analyte
Method: as §2, §3, §4

[15] = biological target: T2, extracellular domain of human ROR1; test: as above; remark: listed apart in the source
Method: as §2, §3, §4

CD3 on Jurkat T cells = biological target: T5, CD3 on Jurkat T cells (human, UniProt P07766 23-207; P04234 22-171); test: flow cytometry on Jurkat T cells, fluorescently labeled secondary antibody, MFI against antibody concentration
T5 construct: also called human CD3; copies: 1 + 1
T5 sequence (P07766 23-207 limits assumed, chain 1 of 2): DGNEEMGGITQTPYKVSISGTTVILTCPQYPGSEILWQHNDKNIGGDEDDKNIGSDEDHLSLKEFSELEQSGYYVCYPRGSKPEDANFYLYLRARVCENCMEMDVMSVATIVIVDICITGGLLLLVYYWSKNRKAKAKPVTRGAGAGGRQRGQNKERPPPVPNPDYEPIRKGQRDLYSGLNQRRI
T5 sequence (P04234 22-171 limits assumed, chain 2 of 2): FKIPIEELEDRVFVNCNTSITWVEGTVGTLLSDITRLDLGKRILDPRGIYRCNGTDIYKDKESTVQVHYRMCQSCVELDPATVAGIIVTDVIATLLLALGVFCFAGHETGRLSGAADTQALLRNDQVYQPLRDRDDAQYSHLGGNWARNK
Text: (§5) In this Example, the binding to human and cynomolgus CD3 was further characterized by assessing cell binding to Jurkat T cells, a Jurkat CD3 knock-out cell line, or a cynomolgus T cell line.

[16] = biological target: T6, CD3 on a cynomolgus T cell line (cynomolgus); test: flow cytometry on a cynomolgus T cell line, fluorescently labeled secondary antibody, MFI against antibody concentration
T6 construct: whole, on cells; also called cynomolgus CD3
T6 sequence (Q95LI5 22-198, chain 1 of 3): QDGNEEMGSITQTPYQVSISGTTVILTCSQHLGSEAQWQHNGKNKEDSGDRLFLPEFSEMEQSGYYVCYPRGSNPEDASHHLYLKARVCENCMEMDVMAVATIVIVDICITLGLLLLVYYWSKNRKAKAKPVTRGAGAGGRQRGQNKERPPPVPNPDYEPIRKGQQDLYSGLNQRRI
T6 sequence (Q95LI8 22-171, chain 2 of 3, further chain): as the sequence (P04234 22-171 limits assumed, chain 2 of 2) above, with I5V, N15K, I20V, S32T, D33N, I34N, T64A, S74N, V83L, H141R counted along it
T6 sequence (Q95LI7 23-181, chain 3 of 3, further chain): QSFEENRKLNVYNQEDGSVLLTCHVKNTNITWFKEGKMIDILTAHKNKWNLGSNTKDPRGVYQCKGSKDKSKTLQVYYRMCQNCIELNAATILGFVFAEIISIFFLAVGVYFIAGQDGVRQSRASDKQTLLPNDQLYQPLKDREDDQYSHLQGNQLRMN
Text: as §5

[17] = biological target: T2, extracellular domain of human ROR1; test: BLI (Octet), IgG1, two-fold serial dilution 200-12.5 nM
Text: To measure binding affinity in ROR binder discovery campaigns, the VL and VH domains identified in the phage screen described above were formatted into a bivalent monospecific native human full-length IgG1 architecture and immobilized to a biosensor on an Octet (Pall ForteBio) biolayer interferometer. Soluble ROR antigens, including the extracellular domains of ROR1 (Acro Cat. No. RO1-H522γ) and ROR2 (Acro Cat. No. R02-H52E5), as well as the individual ROR1 Frizzled (Acro Cat. No. RO1-H5222), Ig-like (Acro Cat. No. RO1-H5221), and Kringle (Acro Cat. No. RO1-H5223) domains, were then added to the system and binding measured.
The VH and VL sequences above were formatted into a bivalent monospecific native human full-length IgG1 architecture.

[18] = biological target: T2, extracellular domain of human ROR1; test: BLI, monovalent format, IgG on Fc biosensor
[19] = biological target: T2, extracellular domain of human ROR1; test: BLI (Octet QK384), monovalent format: antibody captured on Fc biosensor, untagged antigen as analyte

B1: bivalent bispecific B-Body “BC1” (bispecific antibody)
chain 1: not shown
chain 2: EVQLVESGGGLVQPGGSLRLSCAASGFTFSDYDIHWVRQAPGKGLEWVGDITPYDGTTNYADSVKGRFTISADTSKNTAYLQMNSLRAEDTAVYYCARLVGEIATGFDYWGQGTLVTVSSASPREPQVYTDPPSRDELTKNQVSLTCLVKGFYPSDIAVEWESNGQPENNYKTTPPVLDSDGSFFLYSKLTVDKSRWQQGNVFSCSVMHEALHNHYTQKSLSLSGEC
chain 3: not shown
chain 4: QVQLVESGGGVVQPGRSLRLDCKASGITFSNSGMHWVRQAPGKGLEWVAVIWYDGSKRYYADSVKGRFTISRDNSKNTLFLQMNSLRAEDTAVYYCATNDDYWGQGTLVTVSSASTKGPSVFPLAPSSKSTSGGTAALGCLVKDYFPEPVTVSWNSGALTSGVHTFPAVLQSSGLYSLSSVVTVPSSSLGTQTYICNVNHKPSNTKVDKKVEPPKSC
notes: A:F site for Antigen A, H:L site nivolumab variable domains (PD1)
CTLA4
  binding result: no binding

B2: I2-A27 1×2 B-body™ bispecific antibody (ROR1xCD3) (bispecific antibody)
chain 1: DIQMTQSPSSLSASVGDRVTITCRASQSVSSAVAWYQQKPGKAPKLLIYSASSLYSGVPSRFSGSRSGTDFTLTISSLQPEDFATYYCQQYYSSPRTFGQGTKVEIKRTPREPQVYTLPPSRDELTKNQVSLKCLVKGFYPSDIAVEWESNGQPENNYKTTPPVLDSDGSFFLYSKLTVDKSRWQQGNVFSCSVMHEALHNHYTQKSLSLSKSCDKTHTCPPCPAPEAAGGPSVFLFPPKPKDTLMISRTPEVTCVVVDVSHEDPEVKFNWYVDGVEVHNAKTKPREEQYNSTYRVVSVLTVLHQDWLNGKEYKCKVSNKALKAPIEKTISKAKGQPREPQVCTLPPSREEMTKNQVSLSCAVKGFYPSDIAVEWESNGQPENNYKTTPPVLDSDGSFFLVSKLTVDKSRWQQGNVFSCSVMHEALHNHYTQKSLSLSPGK
chain 2: EVQLVESGGGLVQPGGSLRLSCAASGFTFKGYYIHWVRQAPGKGLEWVAAIYPYGGSTDYADSVKGRFTISADTSKNTAYLQMNSLRAEDTAVYYCARVYIYGVFDYWGQGTLVTVSSASPREPQVYTDPPSRDELTKNQVSLTCLVKGFYPSDIAVEWESNGQPENNYKTTPPVLDSDGSFFLYSKLTVDKSRWQQGNVFSCSVMHEALHNHYTQKSLSLSGEC
chain 3: not shown
chain 4: EVQLVESGGGLVQPGGSLRLSCAASGFTFNTYAMNWVRQAPGKGLEWVARIRSKYNNYATYYADSVKGRFSISRDDSKNTAYLQMNSLRAEDTAVYYCVRHGNFGNSYVSWFAYWGQGTLVTVSSASTKGPSVFPLAPSSKSTSGGTAALGCLVKDYFPEPVTVSWNSGALTSGVHTFPAVLQSSGLYSLSSVVTVPSSSLGTQTYICNVNHKPSNTKVDKKVEPPKSC
notes: two ROR sites, one SP34-89 CD3 site; chain 5 is the same as chain 2; also called I2A-27 BC1 1×2
[1]
  koff: 3.5e-05 s⁻¹
  kon: 490000 M⁻¹ s⁻¹
[2]
  Kd: 0.71 nM
[3]
  Kd: 3.8 nM
[4]
  koff: 0.00032 s⁻¹
  kon: 110000 M⁻¹ s⁻¹
[5]
  koff: 0.0026 s⁻¹
  kon: 680000 M⁻¹ s⁻¹
[6]
  Kd: 3 nM

B3: I2-A10 D54E Y55Q 1×2 B-body™ (ROR1/ROR2xCD3) (bispecific antibody)
chain 1: B2 chain 1 with Y55Q, S93Y, S94Y, R96G
chain 2: EVQLVESGGGLVQPGGSLRLSCAASGFTFSSYFIHWVRQAPGKGLEWVAGIYPSEGYTSYADSVKGRFTISADTSKNTAYLQMNSLRAEDTAVYYCARYYVSGMDYWGQGTLVTVSSASPREPQVYTDPPSRDELTKNQVSLTCLVKGFYPSDIAVEWESNGQPENNYKTTPPVLDSDGSFFLYSKLTVDKSRWQQGNVFSCSVMHEALHNHYTQKSLSLSGEC
chain 3: not shown
chain 4: B2 chain 4
notes: two ROR sites, one SP34-89 CD3 site; chain 5 is the same as chain 2; also called I2A-10 D54E Y55Q BC1 1×2
[7]
  Kd: < 1 pM
[8]
  Kd: 0.46 nM
[4]
  koff: 0.00063 s⁻¹
  kon: 180000 M⁻¹ s⁻¹
[9]
  Kd: 3.3 pM
  kon: 1.4e+06 M⁻¹ s⁻¹
[10]
  koff: 1.1e-05 s⁻¹
  kon: 510000 M⁻¹ s⁻¹
[11]
  Kd: 3 pM
[12]
  Kd: 0.021 nM
[13]
  Kd: 3.5 nM
[14]
  koff: < 1e-07 s⁻¹
  kon: 140000 M⁻¹ s⁻¹
[15]
  koff: 0.00023 s⁻¹
  kon: 480000 M⁻¹ s⁻¹

B4: SP34-89 humanized antibody (antibody, V domains shown)
VH: EVQLVESGGGLVQPGGSLRLSCAASGFTFNTYAMNWVRQAPGKGLEWVARIRSKYNNYATYYADSVKGRFSISRDDSKNTAYLQMNSLRAEDTAVYYCVRHGNFGNSYVSWFAYWGQGTLVTV
VL: QAVVTQEPSLTVSPGGTVTLTCRSSTGAVTTSNYANWVQQKPGQAPRGLIGGTNKRAPWTPARFSGSLLGGKAALTITGAQAEDEADYYCALWYSNLWVFGGGTKLTVL
CD3 on Jurkat T cells
  EC50 (read off the curve): ~600 pM
[16]
  EC50 (read off the curve): ~700 pM

B5: I2A-27 IgG1 (antibody, V domains shown)
VH: EVQLVESGGGLVQPGGSLRLSCAASGFTFKGYYIHWVRQAPGKGLEWVAAIYPYGGSTDYADSVKGRFTISADTSKNTAYLQMNSLRAEDTAVYYCARVYIYGVFDYWGQGTLVTVSS
VL: DIQMTQSPSSLSASVGDRVTITCRASQSVSSAVAWYQQKPGKAPKLLIYSASSLYSGVPSRFSGSRSGTDFTLTISSLQPEDFATYYCQQYYSSPRTFGQGTKVEIKR
notes: bivalent monospecific native human full-length IgG1; the Domain F / Domain A entries end with AS / RT of the junction to the constant domain; also called clone I2-A27; I2-A27 IgG antibody
[17]
  Kd: 4.1 nM
  koff: 0.00185 s⁻¹
  kon: 511000 M⁻¹ s⁻¹
[18]
  Kd: 2.8 nM
[19]
  koff: 0.0026 s⁻¹
  kon: 940000 M⁻¹ s⁻¹
